Tests used:
[1] = molecular target: T1, mouse TCTP (Mus musculus, UniProt P63028); experiment: Immunoblotting of whole cell lysate of TCTP WT / TCTP KO SL4 cells using the 55F3 monoclonal antibody; format: binding; settings: lysate of TCTP WT vs TCTP KO SL4 cells, FIG. 12(a)
T1 construct: preparing the whole cell lysate of TCTP WT SL4 cells (WT) or TCTP KO SL4 cells (KO), followed by immunoblotting; endogenous in cells; host or cells: SL4 mouse colon carcinoma cells (TCTP WT; TCTP KO as negative control)
T1 sequence (P63028 1-172): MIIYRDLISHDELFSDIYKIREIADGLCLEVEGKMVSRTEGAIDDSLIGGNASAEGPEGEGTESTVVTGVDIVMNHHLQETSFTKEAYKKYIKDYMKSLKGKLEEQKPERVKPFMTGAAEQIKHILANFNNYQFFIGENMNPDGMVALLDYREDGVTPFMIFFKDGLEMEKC
Description: In FIG. 12(b), PECs (2×10^5 cells) were stimulated with a supernatant of dead SL4 cells comprising the 55F3 antibody or control IgG. After the stimulation for 2 hours, the expressed Cxcl1 mRNA was quantified by RT-qPCR. n=3, and Sup: culture supernatant. In FIG. 12(c), TCTP WT SL4 cells or TCTP KO SL4 cells ([…]) were subcutaneously transplanted into C57BL/6 mice. After the transplantation, DHA (50 mg/kg) or DMSO was intraperitoneally administered to the mice every day (n=6). In FIG. 12(d), (left view) the expression level of TCTP in the interstitial area of normal large intestinal tissues was compared with the expression level of TCTP in the interstitial area of colorectal cancer tissues. In FIG. 12(d), (right view) a normal colon crypt was compared with a neoplastic lesion. […] Spearman r: spearman correlation coefficients. *P<0.05, **P<0.01. Regarding FIG. 12(b), repeated measures one-way ANOVA with Dunnett's multiple comparisons test. Regarding FIG. 12(c), repeated measures one-way ANOVA with Tukey's multiple comparisons test. […]
Immunoblot analysis was performed according to the previous report (Inoue et al., Nature 434, 243-249, doi: 10.1038/nature03308 (2005)). β-Actin (cat# A5441) was purchased from Sigma-Aldrich. […] Immunoblotting signals were detected by FUSION Solo S (Vilber-Lourmat), and were then analyzed by FUSION Capt Advanced software (Vilber-Lourmat). […]

[2] = system: Cxcl1 mRNA from PECs; experiment: PECs stimulated with supernatant of dead SL4 cells containing antibody, Cxcl1 mRNA by RT-qPCR; format: cell-based, mouse; settings: PECs stimulated 2 hours with culture supernatant of SL4 cells containing 55F3, vs control IgG, FIG. 12(b)
Description: In FIG. 12(b), PECs (2×10^5 cells) were stimulated with a supernatant of dead SL4 cells comprising the 55F3 antibody or control IgG. After the stimulation for 2 hours, the expressed Cxcl1 mRNA was quantified by RT-qPCR. n=3, and Sup: culture supernatant. In FIG. 12(c), TCTP WT SL4 cells or TCTP KO SL4 cells ([…]) were subcutaneously transplanted into C57BL/6 mice. After the transplantation, DHA (50 mg/kg) or DMSO was intraperitoneally administered to the mice every day (n=6). In FIG. 12(d), (left view) the expression level of TCTP in the interstitial area of normal large intestinal tissues was compared with the expression level of TCTP in the interstitial area of colorectal cancer tissues. In FIG. 12(d), (right view) a normal colon crypt was compared with a neoplastic lesion. […] Spearman r: spearman correlation coefficients. *P<0.05, **P<0.01. Regarding FIG. 12(b), repeated measures one-way ANOVA with Dunnett's multiple comparisons test. Regarding FIG. 12(c), repeated measures one-way ANOVA with Tukey's multiple comparisons test. Regarding FIG. 12(d), unpaired two-sided Student's t-test. NS indicates “no significant difference.” The data are shown as a mean value ±[…] (s.e.m.).
RAW264.7 cells, the mouse melanoma cell line B16F10 cells, the mouse fibrosarcoma cell line Meth-A cells, and HEK293T cells were obtained from RIKEN BioResource Center (Japan). […]

B1: 55F3: Mouse monoclonal antibody against human TCTP peptide SEQ ID NO: 25; CDRs SEQ ID NO: 1-6, VH SEQ ID NO: 19, VL SEQ ID NO: 22 (antibody, listed as Mus musculus)
VH: MRVLILLWLFTAFPGILSDVQLQESGPGLVKPSQSLSLTCTATGYSIASDYAWNWIRQFPGNKLEWMGYINYSGSTGYNPSLKSRISITRDTSKNQFFLQLNSVTTEDTATYYCARFEAGYWGQGTTLTVSSAKTTPPSVYPLAPGSAAQTNSMVTLGCLVKGYFPEPVT
VL: MDMRTPAQFLGILLLWFPGIKCDIKMTQSPSSMSASLGERVTITCKASQDINRYLSWFQQKPGKSPKTLIYRANRLVDGVPSRFSGSGSGQDYSLTISSLEYGDMGIYYCLQYNEFPLTFGAGTKLELKRADAAPTVSIFPPSSEQLTSGGASVVCFLN
- species crossing property to mouse TCTP [1]: has species crossing property to mouse TCTP
- expression of Cxcl1 mRNA from PECs [2]: suppressed
